# Data from publication PMC5377238.
# Substrate: C[S+](CC[C@H](N)C(=O)[O-])C[C@H]1O[C@@H](n2cnc3c(N)ncnc32)[C@H](O)[C@@H]1O
# Assay: purified protein
# Settings: pyruvoyl group (converted Ser68)
protein,measurement,value
human S-adenosylmethionine decarboxylase (hAdoMetDC) (Homo sapiens) (protein) chain 1: MEAAHFFEGTEKLLEVWFSRQQPDANQGSGDLRTIPRSEWDILLKDVQCSIISVTKTDKQEAYVLSE chain 2: SSMFVSKRRFILKTCGTTLLLKALVPLLKLARDYSGFDSIQSFFYSRKNFMKPSHQGYPHRNFQEEIEFLNAIFPNGAAYCMGRMNSDCWYLYTLDFPESRVISQPDQTLEILMSELDPAVMDQFYMKDGVTAKDVTRESGIRDLIPGSVIDATMFNPCGYSMNGMKSDGTYWTIHITPEPEFSYVSFETNLSQTSYDDLIRKVVEVFKPGKFVTTLFVNQSSKCRTVLASPQKIEGFKRLDCQSAMFNDYNFVFTSFAKKQQQQQS,Km,3.1 ± 1.8 µM
